Measurements taken from paper PMC9482650, “Quantitative fragmentomics allow affinity mapping of interactomes” (Nature Communications, 2022).

T1: RADIL, Q96JH8
T1 sequence (Q96JH8 971-1071, limits assumed, looked up): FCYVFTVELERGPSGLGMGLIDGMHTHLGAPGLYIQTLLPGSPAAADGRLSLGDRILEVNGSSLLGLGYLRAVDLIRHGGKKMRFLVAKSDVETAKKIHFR

T2: DLG3_2, Q92796
T2 sequence (Q92796 221-321, limits assumed, looked up): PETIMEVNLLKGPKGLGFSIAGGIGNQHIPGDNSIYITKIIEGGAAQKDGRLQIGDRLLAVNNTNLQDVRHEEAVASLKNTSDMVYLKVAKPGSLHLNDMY

T3: SNTG2, Q9NY99
T3 sequence (Q9NY99 68-166, limits assumed, looked up): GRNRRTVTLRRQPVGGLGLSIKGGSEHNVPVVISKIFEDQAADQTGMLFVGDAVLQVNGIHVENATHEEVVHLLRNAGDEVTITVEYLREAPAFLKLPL

T4: DFNB31_1, Q9P202
T4 sequence (Q9P202 135-233, limits assumed, looked up): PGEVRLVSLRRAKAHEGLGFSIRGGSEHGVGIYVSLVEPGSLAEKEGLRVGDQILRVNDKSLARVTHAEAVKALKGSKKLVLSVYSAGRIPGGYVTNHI

T5: LIN7A, O14910
T5 sequence (O14910 103-200, limits assumed, looked up): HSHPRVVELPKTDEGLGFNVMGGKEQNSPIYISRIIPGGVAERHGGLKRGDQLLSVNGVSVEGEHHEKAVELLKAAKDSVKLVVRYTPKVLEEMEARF

T6: PTPN13_1, Q12923
T6 sequence (Q12923 1088-1188, limits assumed, looked up): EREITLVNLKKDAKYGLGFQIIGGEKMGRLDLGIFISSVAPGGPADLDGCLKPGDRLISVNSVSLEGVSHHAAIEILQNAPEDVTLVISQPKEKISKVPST

T7: DLG3_1, Q92796
T7 sequence (Q92796 125-227, limits assumed, looked up): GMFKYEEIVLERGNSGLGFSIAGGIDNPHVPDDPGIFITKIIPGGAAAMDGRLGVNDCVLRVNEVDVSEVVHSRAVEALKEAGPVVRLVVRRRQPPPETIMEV

T8: RHPN1, Q8TCX5
T8 sequence (Q8TCX5 508-602, limits assumed, looked up): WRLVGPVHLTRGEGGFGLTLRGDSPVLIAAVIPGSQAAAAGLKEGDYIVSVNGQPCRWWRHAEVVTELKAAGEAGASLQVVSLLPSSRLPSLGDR

T9: SNTG1, Q9NSN8
T9 sequence (Q9NSN8 52-150, limits assumed, looked up): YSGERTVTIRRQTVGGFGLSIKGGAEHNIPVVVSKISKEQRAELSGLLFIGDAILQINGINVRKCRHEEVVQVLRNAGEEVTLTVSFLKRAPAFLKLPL

T10: MPDZ_5, O75970
T10 sequence (O75970 695-796, limits assumed, looked up): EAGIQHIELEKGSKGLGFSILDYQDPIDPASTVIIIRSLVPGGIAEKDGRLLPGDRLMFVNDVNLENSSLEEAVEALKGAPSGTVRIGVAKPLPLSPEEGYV

T11: NHERF3_3, Q5T2W1
T11 sequence (Q5T2W1 238-333, limits assumed, looked up): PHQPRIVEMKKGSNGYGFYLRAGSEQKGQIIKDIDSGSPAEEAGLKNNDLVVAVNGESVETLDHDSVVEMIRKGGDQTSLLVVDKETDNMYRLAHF


Target: T1, RADIL, Q96JH8
Assay: holdup assay
Parameters: key: below the threshold = too weak to quantify, mostly under pKd 3.1 to 4
Settings: plain residues with an end cap or a label only (N-terminal biotin on a linker: ado-ado)

| Binder | pKd |
| --- | --- |
| SVISRREWYV [NECTIN3, Q9NQS3] | 5.27 |

Target: SCRIB_2, Q14160
Sequence (Q14160 857-960): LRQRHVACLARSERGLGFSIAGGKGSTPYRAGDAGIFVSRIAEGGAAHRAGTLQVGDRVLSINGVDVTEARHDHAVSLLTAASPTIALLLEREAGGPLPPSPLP
Assay: holdup assay
Parameters: key: below the threshold = too weak to quantify, mostly under pKd 3.1 to 4
Settings: plain residues with an end cap or a label only (N-terminal biotin on a linker: ado-ado)

| Binder | pKd |
| --- | --- |
| SVISRREWYV [NECTIN3, Q9NQS3] | below the threshold |

Target: DLG1_3, Q12959
Sequence (Q12959 457-571): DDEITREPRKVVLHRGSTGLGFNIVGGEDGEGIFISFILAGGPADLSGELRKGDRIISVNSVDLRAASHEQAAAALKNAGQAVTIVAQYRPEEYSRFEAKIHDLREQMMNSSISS
Assay: holdup assay
Parameters: key: below the threshold = too weak to quantify, mostly under pKd 3.1 to 4
Settings: plain residues with an end cap or a label only (N-terminal biotin on a linker: ado-ado)

| Binder | pKd |
| --- | --- |
| SVISRREWYV [NECTIN3, Q9NQS3] | below the threshold |

Target: MAGI2_4, Q86UL8
Sequence (Q86UL8 772-865): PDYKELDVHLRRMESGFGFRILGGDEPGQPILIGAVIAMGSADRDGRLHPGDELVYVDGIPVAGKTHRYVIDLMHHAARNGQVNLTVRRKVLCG
Assay: holdup assay
Parameters: key: below the threshold = too weak to quantify, mostly under pKd 3.1 to 4
Settings: plain residues with an end cap or a label only (N-terminal biotin on a linker: ado-ado)

| Binder | pKd |
| --- | --- |
| SVISRREWYV [NECTIN3, Q9NQS3] | 4.11 |

Target: FRMPD2_2, Q68DX3
Sequence (Q68DX3 944-1038): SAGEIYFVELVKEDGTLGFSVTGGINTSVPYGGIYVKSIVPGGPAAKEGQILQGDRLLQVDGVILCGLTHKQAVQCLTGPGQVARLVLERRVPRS
Assay: holdup assay
Parameters: key: below the threshold = too weak to quantify, mostly under pKd 3.1 to 4
Settings: plain residues with an end cap or a label only (N-terminal biotin on a linker: ado-ado)

| Binder | pKd |
| --- | --- |
| SVISRREWYV [NECTIN3, Q9NQS3] | 4.14 |

Target: T2, DLG3_2, Q92796
Assay: holdup assay
Parameters: key: below the threshold = too weak to quantify, mostly under pKd 3.1 to 4
Settings: plain residues with an end cap or a label only (N-terminal biotin on a linker: ado-ado)

| Binder | pKd |
| --- | --- |
| SVISRREWYV [NECTIN3, Q9NQS3] | 3.66 |

Target: FRMPD2_3, Q68DX3
Sequence (Q68DX3 1073-1166): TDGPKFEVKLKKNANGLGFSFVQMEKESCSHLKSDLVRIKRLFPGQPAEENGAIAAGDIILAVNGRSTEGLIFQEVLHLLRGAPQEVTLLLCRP
Assay: holdup assay
Parameters: key: below the threshold = too weak to quantify, mostly under pKd 3.1 to 4
Settings: plain residues with an end cap or a label only (N-terminal biotin on a linker: ado-ado)

| Binder | pKd |
| --- | --- |
| SVISRREWYV [NECTIN3, Q9NQS3] | 4.44 |

Target: TJP1_3, Q07157
Sequence (Q07157 416-512): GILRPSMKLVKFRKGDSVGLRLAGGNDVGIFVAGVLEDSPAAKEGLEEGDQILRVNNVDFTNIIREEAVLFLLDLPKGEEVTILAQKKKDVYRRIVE
Assay: holdup assay
Parameters: key: below the threshold = too weak to quantify, mostly under pKd 3.1 to 4
Settings: plain residues with an end cap or a label only (N-terminal biotin on a linker: ado-ado)

| Binder | pKd |
| --- | --- |
| SVISRREWYV [NECTIN3, Q9NQS3] | 3.67 |

Target: T3, SNTG2, Q9NY99
Assay: holdup assay
Parameters: key: below the threshold = too weak to quantify, mostly under pKd 3.1 to 4
Settings: plain residues with an end cap or a label only (N-terminal biotin on a linker: ado-ado)

| Binder | pKd |
| --- | --- |
| SVISRREWYV [NECTIN3, Q9NQS3] | below the threshold |

Target: AHNAK1, Q09666
Sequence (Q09666 4-100): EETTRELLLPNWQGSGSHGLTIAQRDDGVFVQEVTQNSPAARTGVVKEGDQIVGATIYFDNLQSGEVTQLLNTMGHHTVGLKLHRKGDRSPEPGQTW
Assay: holdup assay
Parameters: key: below the threshold = too weak to quantify, mostly under pKd 3.1 to 4
Settings: plain residues with an end cap or a label only (N-terminal biotin on a linker: ado-ado)

| Binder | pKd |
| --- | --- |
| SVISRREWYV [NECTIN3, Q9NQS3] | below the threshold |

Target: LNX1_2, Q8TBB1
Sequence (Q8TBB1 371-470): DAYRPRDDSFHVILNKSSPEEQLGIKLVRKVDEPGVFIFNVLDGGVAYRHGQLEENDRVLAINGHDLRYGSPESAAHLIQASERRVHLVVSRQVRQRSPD
Assay: holdup assay
Parameters: key: below the threshold = too weak to quantify, mostly under pKd 3.1 to 4
Settings: plain residues with an end cap or a label only (N-terminal biotin on a linker: ado-ado)

| Binder | pKd |
| --- | --- |
| SVISRREWYV [NECTIN3, Q9NQS3] | 4.59 |

Target: LIMK2, P53671
Sequence (P53671 143-248): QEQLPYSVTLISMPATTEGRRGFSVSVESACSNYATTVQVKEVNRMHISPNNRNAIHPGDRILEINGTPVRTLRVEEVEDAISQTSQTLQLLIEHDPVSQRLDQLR
Assay: holdup assay
Parameters: key: below the threshold = too weak to quantify, mostly under pKd 3.1 to 4
Settings: plain residues with an end cap or a label only (N-terminal biotin on a linker: ado-ado)

| Binder | pKd |
| --- | --- |
| SVISRREWYV [NECTIN3, Q9NQS3] | below the threshold |

Target: T4, DFNB31_1, Q9P202
Assay: holdup assay
Parameters: key: below the threshold = too weak to quantify, mostly under pKd 3.1 to 4
Settings: plain residues with an end cap or a label only (N-terminal biotin on a linker: ado-ado)

| Binder | pKd |
| --- | --- |
| SVISRREWYV [NECTIN3, Q9NQS3] | below the threshold |

Target: T5, LIN7A, O14910
Assay: holdup assay
Parameters: key: below the threshold = too weak to quantify, mostly under pKd 3.1 to 4
Settings: plain residues with an end cap or a label only (N-terminal biotin on a linker: ado-ado)

| Binder | pKd |
| --- | --- |
| SVISRREWYV [NECTIN3, Q9NQS3] | 3.58 |

Target: Inadl_3, Q8NI35
Sequence (Q8NI35 359-469): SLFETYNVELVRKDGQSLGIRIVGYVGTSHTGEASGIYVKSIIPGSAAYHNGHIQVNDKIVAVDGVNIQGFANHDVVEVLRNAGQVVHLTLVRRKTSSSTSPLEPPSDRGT
Assay: holdup assay
Parameters: key: below the threshold = too weak to quantify, mostly under pKd 3.1 to 4
Settings: plain residues with an end cap or a label only (N-terminal biotin on a linker: ado-ado)

| Binder | pKd |
| --- | --- |
| SVISRREWYV [NECTIN3, Q9NQS3] | 5.03 |

Target: T6, PTPN13_1, Q12923
Assay: holdup assay
Parameters: key: below the threshold = too weak to quantify, mostly under pKd 3.1 to 4
Settings: plain residues with an end cap or a label only (N-terminal biotin on a linker: ado-ado)

| Binder | pKd |
| --- | --- |
| SVISRREWYV [NECTIN3, Q9NQS3] | below the threshold |

Target: MAGI1_2, Q96QZ7
Sequence (Q96QZ7 456-580): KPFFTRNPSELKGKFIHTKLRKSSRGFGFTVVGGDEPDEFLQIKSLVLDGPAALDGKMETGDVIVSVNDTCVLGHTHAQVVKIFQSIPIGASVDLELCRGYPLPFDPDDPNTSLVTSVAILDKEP
Assay: holdup assay
Parameters: key: below the threshold = too weak to quantify, mostly under pKd 3.1 to 4
Settings: plain residues with an end cap or a label only (N-terminal biotin on a linker: ado-ado)

| Binder | pKd |
| --- | --- |
| SVISRREWYV [NECTIN3, Q9NQS3] | 4.78 |

Target: PTPN3, P26045
Sequence (P26045 505-587): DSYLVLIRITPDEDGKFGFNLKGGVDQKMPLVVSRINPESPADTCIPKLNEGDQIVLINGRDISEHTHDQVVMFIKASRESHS
Assay: holdup assay
Parameters: key: below the threshold = too weak to quantify, mostly under pKd 3.1 to 4
Settings: plain residues with an end cap or a label only (N-terminal biotin on a linker: ado-ado)

| Binder | pKd |
| --- | --- |
| SVISRREWYV [NECTIN3, Q9NQS3] | 4.25 |

Target: T7, DLG3_1, Q92796
Assay: holdup assay
Parameters: key: below the threshold = too weak to quantify, mostly under pKd 3.1 to 4
Settings: plain residues with an end cap or a label only (N-terminal biotin on a linker: ado-ado)

| Binder | pKd |
| --- | --- |
| SVISRREWYV [NECTIN3, Q9NQS3] | below the threshold |

Target: NHERF4_1, Q86UT5-2
Sequence (Q86UT5 other isoform, or with tags, fused parts or gaps): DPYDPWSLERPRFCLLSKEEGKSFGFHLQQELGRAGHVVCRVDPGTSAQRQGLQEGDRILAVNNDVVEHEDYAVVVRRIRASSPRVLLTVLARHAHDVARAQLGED
Assay: holdup assay
Parameters: key: below the threshold = too weak to quantify, mostly under pKd 3.1 to 4
Settings: plain residues with an end cap or a label only (N-terminal biotin on a linker: ado-ado)

| Binder | pKd |
| --- | --- |
| SVISRREWYV [NECTIN3, Q9NQS3] | 3.49 |

Target: T8, RHPN1, Q8TCX5
Assay: holdup assay
Parameters: key: below the threshold = too weak to quantify, mostly under pKd 3.1 to 4
Settings: plain residues with an end cap or a label only (N-terminal biotin on a linker: ado-ado)

| Binder | pKd |
| --- | --- |
| SVISRREWYV [NECTIN3, Q9NQS3] | below the threshold |

Target: T9, SNTG1, Q9NSN8
Assay: holdup assay
Parameters: key: below the threshold = too weak to quantify, mostly under pKd 3.1 to 4
Settings: plain residues with an end cap or a label only (N-terminal biotin on a linker: ado-ado)

| Binder | pKd |
| --- | --- |
| SVISRREWYV [NECTIN3, Q9NQS3] | 3.79 |

Target: GORASP2, Q9H8Y8
Assay: holdup assay
Parameters: key: below the threshold = too weak to quantify, mostly under pKd 3.1 to 4
Settings: plain residues with an end cap or a label only (N-terminal biotin on a linker: ado-ado)

| Binder | pKd |
| --- | --- |
| SVISRREWYV [NECTIN3, Q9NQS3] | 5.1 |

Target: T10, MPDZ_5, O75970
Assay: holdup assay
Parameters: key: below the threshold = too weak to quantify, mostly under pKd 3.1 to 4
Settings: plain residues with an end cap or a label only (N-terminal biotin on a linker: ado-ado)

| Binder | pKd |
| --- | --- |
| SVISRREWYV [NECTIN3, Q9NQS3] | 5.19 |

Target: Inadl_10, Q8NI35
Sequence (Q8NI35 1673-1763): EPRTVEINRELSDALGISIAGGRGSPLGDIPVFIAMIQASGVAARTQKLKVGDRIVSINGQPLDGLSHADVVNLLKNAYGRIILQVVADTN
Assay: holdup assay
Parameters: key: below the threshold = too weak to quantify, mostly under pKd 3.1 to 4
Settings: plain residues with an end cap or a label only (N-terminal biotin on a linker: ado-ado)

| Binder | pKd |
| --- | --- |
| SVISRREWYV [NECTIN3, Q9NQS3] | below the threshold |

Target: T11, NHERF3_3, Q5T2W1
Assay: holdup assay
Parameters: key: below the threshold = too weak to quantify, mostly under pKd 3.1 to 4
Settings: plain residues with an end cap or a label only (N-terminal biotin on a linker: ado-ado)

| Binder | pKd |
| --- | --- |
| SVISRREWYV [NECTIN3, Q9NQS3] | below the threshold |

Target: Inadl_9, Q8NI35
Sequence (Q8NI35 1530-1615): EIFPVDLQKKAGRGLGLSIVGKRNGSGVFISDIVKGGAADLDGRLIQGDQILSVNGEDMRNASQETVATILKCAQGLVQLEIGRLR
Assay: holdup assay
Parameters: key: below the threshold = too weak to quantify, mostly under pKd 3.1 to 4
Settings: plain residues with an end cap or a label only (N-terminal biotin on a linker: ado-ado)

| Binder | pKd |
| --- | --- |
| SVISRREWYV [NECTIN3, Q9NQS3] | 4.51 |
